Data on 22 sequences can be found in the DeepSol protein solubility set.

The nature of this data set: soluble on expression in E. coli; label from the status in PepcDB or PDB records.
“MELIQDTSRPPLEYVKGVPLIKYFAEALGPLQSFQARPDDLLINTYPKSGTTWVSQILDMIYQGGDLEKCNRAPIYVRVPFLEVNDPGEPSGLETLKDTPPPRLIKSHLPLALLPQTLLDQKVKVVYVARNPKDVAVSYYHFHRMEKAHPEPGTWDSFLEKFMAGEVSYGSWYQHVQEWWELSRTHPVLYLFYEDMKENPKREIQKILEFVGRSLPEETMDFMVQHTSFKEMKKNPMTNYTTVPQELMDHSISPFMRKGMAGDWKTTFTVAQNERFDADYAEKMAGCSLSFRSEL”: the “soluble on expression in E. coli” value is reported as “soluble”.
On to “MELKTSDVAARLGVSPKTIQRWVRKYDIPLRRNEAGHYLFDEKTVALLERVKFEQGAAMEAPPTPKRPPTPLRNNIPIDALHESIEPEIARVSSRLDQLERQLEQKADDVVSIQLLHHRQEMEEIVARLTALEQLVARLEQQLNTRPPAPHEPPEETKQKRRGLGRVMGLFA”, for which the “soluble on expression in E. coli” value is listed as “not soluble”.
Regarding “MELRAATKLTEEKYELKEGQTLDVKCDYTLEKFASSQKAWQIIRDGEMPKTLACTERPSKNSHPVQVGRIILEDYHDHGLLRVRMVNLQVEDSGLYQCVIYQPPKEPHMLFDRIRLVVTLEHHHHHH”, the “soluble on expression in E. coli” value is recorded as “soluble”.
On to “MEMDLPVSAIGFEGFEKRLEISFVEPGLFADPNGKGLRSLSKAQLDEILGPAECTIVDNLSNDYVDSYVLSE”, for which the “soluble on expression in E. coli” value is recorded as “soluble”.
Turning to “MEMNVAAPAAAVAGAAAPQPGQNQTGSSYTMASLYVGDLHPDVNESILFEKFSAAGPVLSIRVCRDNATRLSLGYAYVNFQQPADAERAMDTMNFEALHGKPMRIMWSQRDPAMRRSGAGNIFIKNLDKVIDNKSIYDTFSLFGNILSCKVAIDEDGFSKGYGFVHFETEEAAQNAIQKVNGMLLAGKKVFVGKFQPRAQRNRELGETAKQFTNVYVKNFGDHYNKETLEKLFAKFGNITSCEVMTVEGKSKGFGFVAFANPEEAETAVQALHDSTIEGTDLKLHVCRAQKKSERHAELKKKHEQHKAERMQKYQGVNLYVKNLDETVDDDGLKKQFESYGNITSAKVMTDENGRSKGFGFVCFEKPEEATSAVTEMNSKMVCSKPLYVAIAQRKEDRRAQLASQYMQRLASMRMHGNVPGAAMYNPTQPGPGYYVANPMQQQRNFAGGQQMVRPGGRWGMQNQYPVQNQYMMAQGPGVYQNRMGRPQNQQGGPRGPPQQYNQVAQGGVRMQGPPRTQNPGVQQQNVPRPPQQQQQQRPAPTGPKAPPQPYQAYQQRPQGIVIGGQEPLTSAMLAAAAPQEQKQLLGERIYALIEKLYPGHKDAGKITGMMLEIDNSELIMMLQDSELFRSKVDEAASVLVSAQKQ”, the “soluble on expression in E. coli” value was “not soluble”.
With “MENFPIISLDKVNGVERAATMEMIKDACENWGFFELVNHGIPREVMDTVEKMTKGHYKKCMEQRFKELVASKALEGVQAEVTDMDWESTFFLKHLPISNISEVPDLDEEYREVMRDFAKRLEKLAEELLDLLCENLGLEKGYLKNAFYGSKGPNFGTKVSNYPPCPKPDLIKGLRAHTDAGGIILLFQDDKVSGLQLLKDGQWIDVPPMRHSIVVNLGDQLEVITNGKYKSVMHRVIAQKDGARMSLASFYNPGSDAVIYPAPALVEKEAEENKQVYPKFVFDDYMKLYAGLKFQAKEPRFEAMKAMETDVKMDPIATV”, the “soluble on expression in E. coli” value is “soluble”.
For “MENNNGFADMADYLGKLSQVDATKLSIESLTAAANFYMEKLLPNIPKSLLKKKHMVDQVKVNIKDNEVQVAFEDTAFYWRFAENGTVNQKAQHFASGTFEQNKDQIEKIMTQQILDLWKG”, the “soluble on expression in E. coli” value is on record as “soluble”.
Turning to “MENNVESNLQPVPMRYGDKRYYSWNQHLREQFGEKVFKVPLDAGFDCPNRDGNVASGGCTFCSERGSGDFAGDRKDDLVTQFHTIKERMHKKWTSGKYIGYFQAYTNTYAPVETLREYYEVILEQEGVVGLAIATRPDCLPDDVVEYLAELNKRTYLWVELGLQTVHERTALLINRAHDYQCYVDGVNKLRKHGIRVCSHIINGLPLENHQMMMETAKEVAKLDVQGIKIHSLHLLKRTPMVKQYEKGLVEFMSLEEYVNLVVDQLEVLPPHMIIHRLMGDGPGDLMIGPMWSMKKWEVLNAIEAELERRDSWQGKHYRAQVEVQ”, the “soluble on expression in E. coli” value is “not soluble”.
For the sequence “MENPMNTDHTKRNLFELYAELIHQQEKWEGLIKAFLSDELRKLDVEHGSKSQLTMTEIHVLSCVGDNEPINVTSIAEKMNTTKATVSRISTKLLGAGFLHRTQLSDNKKEVYFRLTPAGKKLHSLHKYYHQKAEQRFLSFFDRYTEEEILFAERLFRDLVTKWYPSSEEIEGGLPSIFK”, the “soluble on expression in E. coli” value is listed as “not soluble”.
Consider “MENRPVNIVLPKIENPILIEGYPGIGLVGHIAANFLAKELKMEVIGYVESSFIPPMSLILEGKPNPPLRFYGKDNIIIAVADIYLPPTLINEIAKEIANYLEQNKAEKVISLGGMGIGIFKDKFEVWGVGGTEEENKELQDLGVKILEYGSISGMSGKLLWEASRRGLKSYVILGETFGDRPDPRAAANVVEVLDRMLTLNVSVEPLLKEAEMIEEQLRKMHEQMEKARRSVEKQYETMYL”, for which the “soluble on expression in E. coli” value is given as “soluble”.
On to “MENSHKRGRPDILHQALLVILTDPVIKGDIFIHTIQSKIIKVNPNMRPPKNYLRFIGLMEQLLKYGKIPINGDETLMEVTNLTLDNIVNRYDLILLSEKGEKINPEEICKLDEKWLLGIGAFPHGDFSDKILNLAKKIYSISGFPLETQQVLCRIFSACNS”, for which the “soluble on expression in E. coli” value was “soluble”.
Regarding “MEPAAGSSMEPSADWLATAAARGRVEEVRALLEAGALPNAPNSYGRRPIQVMMMGSARVAELLLLHGAEPNCADPATLTRPVHDAAREGFLDTLVVLHRAGARLDVRDAWGRLPVDLAEELGHRDVARYLRAAAGGTRGSNHARIDAAEGPSDIPD”, the “soluble on expression in E. coli” value is recorded as “soluble”.
With “MEPGLDGGYLLLGVDWAINDKGDTVYRPVGLPDPDKVQRDLASQCASMLNVALRPEMQLEQVGGKTLLVVYVPEADVTHKPIYKKATGLPGGAYRRIGSSDQRCVDEDLWVLRGLEHHHHHH”, the “soluble on expression in E. coli” value is given as “not soluble”.
For the sequence “MEPVFKEPSPKKKRVENPPENAPDAPKKPQLKHESEFLRSIPSSSQYEKSFMHRDTISHVIATKTDFIITASVDGHLKFWKKKHSEGVEFVKHFRCHLSEFSHICANIDGTLLATVCEADKSVKVFDIENFDMINMIKLDFPPKTANWVHQSNDPIAHLAIGAADSGKIIVVDGKATAAPICIKDKLHSTPVKIIEYSQSLDIIVSIDESGMIECWNGERGDFQFPETKLTWEYKLETDLYDFVKAKTIPVCATFDPSGLKLATFAEDRKIRIFNVKTGKLAQLIDETTQKYHCEAKENKNYGLQHMEWSRRLASEKEMDKDKKNSLKYTKICFDQSGNFLLYPTPIGVKVFNLVTNEVSRTIGRDEAIRFVAVSLCNALPDIRQKLQGAAITLETAAADNPTLNRKTDPDPLMVCCALRKNRFYLFTNTEPYNVEDDEGNPSVSGRDVFNERPKKEDLLTALDTEGGEKVLNKEAIIHTSFGDITIRLFGDECPKTVENFCTHSRRGYYNGLTFHRVIKSFMIQTGDPSGKGTGGESIWGEDFEDEFHPRLRHDKPFKVSMANAGGGNTNGSQFFITVCPADWLDGKNTLFGEVTAGMSVVQRINQVSTFERSGRPRESIQIMSISLK”, the “soluble on expression in E. coli” value is on record as “not soluble”.
Take “MEQPQEEAPEVREEEEKEEVAEAEGAPELNGGPQHALPSSSYTDLSRSSSPPSLLDQLQMGCDGASCGSLNMECRVCGDKASGFHYGVHACEGCKGFFRRTIRMKLEYEKCERSCKIQKKNRNKCQYCRFQKCLALGMSHNAIRFGRMPEAEKRKLVAGLTANEGSQYNPQVADLKAFSKHIYNAYLKNFNMTKKKARSILTGKASHTAPFVIHDIETLWQAEKGLVWKQLVNGLPPYKEISVHVFYRCQCTTVETVRELTEFAKSIPSFSSLFLNDQVTLLKYGVHEAIFAMLASIVNKDGLLVANGSGFVTREFLRSLRKPFSDIIEPKFEFAVKFNALELDDSDLALFIAAIILCGGE”: the “soluble on expression in E. coli” value is “soluble”.
Next, “MERAGICHSDGFDLAYRIEGEGAPILVIGSAAYYPRLFSSDIKQKYQWVFVDHRGFAKPKRELRAEDSRLDAVLADIERMRTFLQLEDVTTLGHSGHAFMALEYARTYPKQVRKVALFNTAPDNSEERQRKSESFFMETASLERKKRFEKDIENLPQDIDKDPERRFVHMCIRAEAKSFYQERPHAAALWDGVFTNMPIIDELWGNTFARIDLLQRLADVRMPVYIGLGRYDYLVAPVSLWDAVDGLYPHVDKVIFEKSGHQPMLEEPEAFDQSFRKWLDQ”: “not soluble”.
Consider “MERHVPEPTHTLEGWHVLHDFRLLDFARWFSAPLEAREDAWEELKGLVREWRELEEAGQGSYGIYQVVGHKADLLFLNLRPGLDPLLEAEARLSRSAFARYLGRSYSFYSVVELGSQEKPLDPESPYVKPRLTPRVPKSGYVCFYPMNKRRQGQDNWYMLPAKERASLMKAHGETGRKYQGKVMQVISGAQGLDDWEWGVDLFSEDPVQFKKIVYEMRFDEVSARYGEFGPFFVGKYLDEEALRAFLGL”, for which the “soluble on expression in E. coli” value is reported as “soluble”.
Take “MERKALVTGGSRGIGRAIAEALVARGYRVAIASRNPEEAAQSLGAVPLPTDLEKDDPKGLVKRALEALGGLHVLVHAAAVNVRKPALELSYEEWRRVLYLHLDVAFLLAQAAAPHMAEAGWGRVLFIGSVTTFTAGGPVPIPAYTTAKTALLGLTRALAKEWARLGIRVNLLCPGYVETEFTLPLRQNPELYEPITARIPMGRWARPEEIARVAAVLCGDEAEYLTGQAVAVDGGFLAY”: the “soluble on expression in E. coli” value is listed as “soluble”.
As for “MERKLGISLYPEHSTKEKDMAYISAAARHGFSRIFTCLLSVNRPKEEIVAEFKEIINHAKDNNMEVILDVAPAVFDQLGISYSDLSFFAELGADGIRLDVGFDGLTEAKMTNNPYGLKIELNVSNDIAYLENILSHQANKSALIGCHNFYPQKFTGLPYDYFIRCSERFKKHGIRSAAFITSHVANIGPWDINDGLCTLEEHRNLPIEVQAKHLWATGLIDDVIIGNAYASEEELEKLGNLNRYMLQLKVHFVDEATEVEKRATLQELHVRRGDITEYMVRSTEVRKKYKDYDFPVRESVLQERGQVVIGNNSFGKYKGELQIILKEMPIDERKNIVGTIAEEELFLLDYVGAWTQFTCVE”, the “soluble on expression in E. coli” value is listed as “soluble”.
On to “MERTVKLRVKVDYKTYSALKEVEKEYREVLEEAINYGLSNKTTSFTRIKAGVYKTEREKHKDLPSHYIYTACEDASERLDSFEKLKRRGRSYTEKPSVRRVTIHLDDHLWKFNLDRISISTKRSRILISPTFPKIFWRYYNKGWRIASEARFKLLKGNVVEFYVIFKRDEPKPYEPKGFISVDLNENSVSVLVDGKPMLLETNTKRITLGYEYRRKAITTGKSTKDREVRRKLKRLRERNKKVDIRRKLAKLIVKEAFESRSVIVLEDLPRRTPEHMIKDVKDSQLRLRIYRAAFSSMKNAIIEKAREFGVPVVLVNPSHTSTVCPVHGTKIVYQLDGGDAPRVGVCEKGKEKWHRDVVALYNLARRAGDVSPVPLGSKESHDPPKRWLRAKSLHSIMNDHKMIEMKVLEHHHHHH”, for which the “soluble on expression in E. coli” value is given as “not soluble”.
Take “MESKEERALNNLIVENVNQENDEKDEKEQVANKGEPLALPLNVSEYCVPRGNRRRFRVRQPILQYRWDIMHRLGEPQARMREENMERIGEEVRQLMEKLREKQLSHSLRAVSTDPPHHDHHDEFCLMP”: the “soluble on expression in E. coli” value was “soluble”.
Next, “MESLKSNLFLTREAYLEAFETIMTPLKTAILTSEKPGVNFGSSGAVYDQQHAEMEALIRPLWGIGPYWVTCKDDVLRDAYVEKLIAGTDPSSPDYWGVIVDYDQYIVEAAALSLTLLLHKTYFWSCFSEKQQENIMVWLNKALGCKIPKNNWTFFKVLIRLALEGCGQVINQAELEEELALIECMYLGDGWYMDGKTTQRDYYISFAFHYYSLIYVKFMRERDPIRAKRFTERAVMFAQDYLYYFDEEGEALPYGRSQTYRFAQGAFFAALIFAEVEALPWGQIKTLLAKHLHCWMQQAIFTYDGRLSIGYHYENLVMAEGYNAPGSPYWAFKTFLLLAVDQDHPFWRAEPLAIKREEKRLEHHHHHH”: “not soluble”.
